Consider one molecule from patent US20100104550A1 (ADELAIDE RESEARCH AND INNOVATION, published 2010).

The target of assay [1] is EGF receptor (EGFR) on F98/EGFR rat glioma cells engineered to express 10^6 EGFR per cell (UniProt P00533 25-1210). Briefly: cell-based or functional assay.
The target in assay [2] is EGF receptor (EGFR) on MDA231luc cells (luciferase-expressing derivative of EGFR-positive human brea (human (human breast carcinoma cells), UniProt P00533 25-1210)). Briefly: cell-based or functional assay.

B1: EGF-SubA fusion protein (Cys-tag, linker, human EGF, linker, SubA 22-347) (other)
chain: MKESCAKKFQRQHMDSGGGGSGGGGSGGGGSMGNSDSECPLSHDGYCLHDGVCMYIEALDKYACNCVVGYIGERCQYRDLKWWELRSMADIGSEKPWYFDAIGLTETTMSLTDKNTPVVVSVVDSGVAFIGGLSDSEFAKFSFTQDGSPFPVKKSEALYIHGTAMASLIASRYGIYGVYPHALISSRRVIPDGVQDSWIRAIESIMSNVFLAPGEEKIINISGGQKGVASASVWTELLSRMGRNNDRLIVAAVGNDGADIRKLSAQQRIWPAAYHPVSSVNKKQDPVIRVAALAQYRKGETPVLHGGGITGSRFGNNWVDIAAPGQNITFLRPDAKTGTGSGTSEATAIVSGVLAAMTSCNPRATATELKRTLLESADKYPSLVDKVTEGRVLNAEKAISMFCKKNYIPVRQGRMSEEL
Take B1: in assay [1], the “IC50 of cytotoxicity toward F98/EGFR cells (72 h, Cell Proliferation Assay)” value was determined as 0.005 nM and the “fold difference in cytotoxicity, F98/EGFR cells against parental F-98 cells” value is 500 fold. In addition, the “IC50 of cytotoxicity toward MDA-231luc cells (72 h, Cell Proliferation Assay)” value in assay [2] is about 0.05 nM.
